Source: publication PMC2920317, “CHL1 Is a Selective Organizer of the Presynaptic Machinery Chaperoning the SNARE Complex” (PLoS ONE, 2010)

T1: Close homologue of L1 (CHL1) (mouse (endogenous in brain), UniProt P70232 26-1209)
T1 construct: CHL1, cell adhesion molecule of the immunoglobulin superfamily, endogenous in adult mouse brain; also called CALL; source: endogenous, mouse brain lysate; synaptosomes; synaptic vesicles and synaptic plasma membranes
T1 sequence (looked up): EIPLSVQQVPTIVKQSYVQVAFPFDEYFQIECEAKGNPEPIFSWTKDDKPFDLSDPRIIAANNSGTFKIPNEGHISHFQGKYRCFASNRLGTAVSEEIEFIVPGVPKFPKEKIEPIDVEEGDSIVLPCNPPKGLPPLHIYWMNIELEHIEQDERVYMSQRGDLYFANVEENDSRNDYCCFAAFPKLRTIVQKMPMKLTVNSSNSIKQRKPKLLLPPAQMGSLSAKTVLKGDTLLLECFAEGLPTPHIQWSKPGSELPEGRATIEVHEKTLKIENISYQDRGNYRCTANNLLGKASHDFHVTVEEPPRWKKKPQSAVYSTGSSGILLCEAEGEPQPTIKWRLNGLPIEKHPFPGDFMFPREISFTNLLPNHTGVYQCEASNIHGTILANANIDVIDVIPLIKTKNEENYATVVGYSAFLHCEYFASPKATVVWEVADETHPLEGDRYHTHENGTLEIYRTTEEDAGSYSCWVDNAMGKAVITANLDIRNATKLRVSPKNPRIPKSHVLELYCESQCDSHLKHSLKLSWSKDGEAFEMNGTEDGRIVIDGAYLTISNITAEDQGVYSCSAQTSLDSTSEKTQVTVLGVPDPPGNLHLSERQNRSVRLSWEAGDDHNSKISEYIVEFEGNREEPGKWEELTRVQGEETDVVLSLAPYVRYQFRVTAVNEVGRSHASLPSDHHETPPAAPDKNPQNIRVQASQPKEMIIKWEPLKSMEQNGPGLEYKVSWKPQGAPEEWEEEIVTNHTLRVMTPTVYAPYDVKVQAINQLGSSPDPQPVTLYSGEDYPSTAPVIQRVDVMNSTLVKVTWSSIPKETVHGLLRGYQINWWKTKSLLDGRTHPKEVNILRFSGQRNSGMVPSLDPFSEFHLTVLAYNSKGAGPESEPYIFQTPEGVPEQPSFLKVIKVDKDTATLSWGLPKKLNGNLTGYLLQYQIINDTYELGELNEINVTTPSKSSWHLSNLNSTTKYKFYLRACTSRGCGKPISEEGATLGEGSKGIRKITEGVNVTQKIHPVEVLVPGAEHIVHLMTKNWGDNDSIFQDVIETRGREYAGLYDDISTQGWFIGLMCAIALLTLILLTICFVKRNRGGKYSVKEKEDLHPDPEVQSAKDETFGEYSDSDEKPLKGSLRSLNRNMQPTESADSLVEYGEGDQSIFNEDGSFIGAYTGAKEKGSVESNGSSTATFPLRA


Biological target: T1, Close homologue of L1 (CHL1)
Assay: co-IP; CHL1 immunoprecipitated from adult mouse brain lysates (50 mM Tris-HCl pH 7.5, 150 mM NaCl, 1% Nonidet P-40, 1 mM EDTA); protein A/G-agarose; Western blot; mock IP with non-specific Ig as control
Conditions: partners not purified

percent of the total pool co-immunoprecipitated | Binder
46 ± 8.5% | small glutamine-rich tetratricopeptide repeat-containing protein, ubiquitous isoform (αSGT) (natural protein, mouse (endogenous in brain), UniProt Q8BJU0 1-315, looked up, αSGT, endogenous in adult mouse brain; also called alphaSGT; source: endogenous, mouse brain lysate; synaptic vesicles and synaptic plasma membranes) MDNRKRLAYAIIQFLHGQLRHGGLSCDAQESLEVAIQCLETAFGVTLEDSDLALPQTLPEIFEAATSSKQEMPQDPRAPDRTPPSEEDSAEAERLKTEGNEQMKLENFEAAVHLYGKAIELNPANAVYFCNRAAAYSKLGNYVGAVQDCERAIGIDPGYSKAYGRMGLALSSLNKHAEAVAYYKKALELDPDNDTYKSNLKIAELKLREAPSPTGGVGSLDIAGLLNNPHFITMASSLMNSPQLQQLMSGMISGGHNPLGTPGSSPQQSDLASLIQAGQQFAQQMQQQNPEFVEQIRSQVVRSRTPSASHEEQQE
15 ± 3.1% | syntaxin1B (natural protein, mouse (endogenous in brain), UniProt P61264 1-288, looked up, syntaxin1B, SNARE complex protein, endogenous in adult mouse brain; also called synatxin1B; source: endogenous, mouse brain lysate and synaptosomes; immunoprecipitated from synaptosomes and held on beads) MKDRTQELRSAKDSDDEEEVVHVDRDHFMDEFFEQVEEIRGCIEKLSEDVEQVKKQHSAILAAPNPDEKTKQELEDLTADIKKTANKVRSKLKAIEQSIEQEEGLNRSSADLRIRKTQHSTLSRKFVEVMTEYNATQSKYRDRCKDRIQRQLEITGRTTTNEELEDMLESGKLAIFTDDIKMDSQMTKQALNEIETRHNEIIKLETSIRELHDMFVDMAMLVESQGEMIDRIEYNVEHSVDYVERAVSDTKKAVKYQSKARRKKIMIIICCVVLGVVLASSIGGTLGL
